Measured values: patent US20240327502A1 (Merck Sharp & Dohme, published 2024)
Where two headings read alike, the source gives them in different places.

Experiments:
[1] = target: T1, F protein of hMPV B virus (human metapneumovirus subtype B); assay: cell-based or functional assay
[2] = target: F protein of RSV B/Washington virus (respiratory syncytial virus B, …); assay: cell-based or functional assay
[3] = target: T2, F protein of hMPV A virus (human metapneumovirus subtype A); assay: cell-based or functional assay
[4] = target: T3, unprocessed hMPV PreF trimeric antigen (human metapneumovirus strain B2); assay: ELISA; Ni-NTA plate coated with Expi293 supernatant containing the His-tagged antigen; antibody titrated; OD450
T3 construct: also called unprocessed hMPV WT PreF trimer; hMPV WT trimer

D414K = target: T4, D414K; assay: as above
T4 construct: also called unprocessed hMPV PreF D414K

[5] = target: T1, F protein of hMPV B virus; assay: cell-based or functional assay; remark: listed apart in the source
[6] = target: T2, F protein of hMPV A virus; assay: cell-based or functional assay; remark: listed apart in the source
N135T G139N Y233N = target: T5, N135T G139N Y233N; assay: ELISA; Ni-NTA plate coated with Expi293 supernatant containing the His-tagged antigen; antibody titrated; OD450
T5 construct: also called unprocessed hMPV PreF N135T/G139N/Y233N

[7] = target: T3, unprocessed hMPV PreF trimeric antigen; assay: as above; remark: listed apart in the source
T143K = target: T6, T143K; assay: as above
T6 construct: also called unprocessed hMPV PreF T143K

[8] = target: T7, F protein of hMPV A MARM virus G264R/Q434H (human metapneumovirus subtype A); assay: cell-based or functional assay
[9] = target: T2, F protein of hMPV A virus; assay: cell-based or functional assay; remark: listed apart in the source
[10] = target: T8, F protein of hMPV A MARM virus V231A/G264R (human metapneumovirus subtype A); assay: cell-based or functional assay
[11] = target: T9, F protein of hMPV A MARM virus K138Q (human metapneumovirus subtype A); assay: cell-based or functional assay
[12] = target: T7, F protein of hMPV A MARM virus …; assay: cell-based or functional assay; remark: listed apart in the source
[13] = target: T8, F protein of hMPV A MARM virus …; assay: cell-based or functional assay; remark: listed apart in the source
[14] = target: T9, F protein of hMPV A MARM virus K138Q; assay: cell-based or functional assay; remark: listed apart in the source

B1: M2B6 (antibody, V domains shown)
VH: QVQLQESGPGLVKPSETLSLTCSVSGASIGGYYWGWIRQPPGKGLEWLGYIYYSGRTVYSPSLRGRLALSLDMSRQQLSLRLRSVAAADTAVYYCASLTITPGWFDSWGPGTLVTVSS
VL: QSVLTQPPSVSGAPGQRVTISCTGSSSNIGAGYDVHWYQQFPGSAPKLLIYGNTKRPSGVPDRFSGSTSGSSASLAITGLQTEDEAEYYCQSYERNLDGALFGGGTKLSVL
[1]
  PRNT IC50: 0.0237 µg/mL
[2]
  PRNT IC50: 0.0092 µg/mL
[3]
  PRNT IC50: 0.044 µg/mL

B2: M1C7s (antibody, V domains shown)
VH: QVQLVQSGPEVRKPGSSVRVSCKASGGTFTRLTITWVRQAPGQGLEWMGRIIPAVDITNYAPKFQGRVTITADKSTGAVYMDLISLTSDDTAIYFCATVLDWSNALDIWGQGTMVTVSS
VL: DIVMTQTPLSLSVTPGQPASISCKSSESLLNSDGKTYLFWYLQKPGQSPQVLIYDLSSRFSGVPERFSGSGSGTDFTLKISRVEPEDVGIYYCMQGLHLPWTFGRGTRLEIKR
[1]
  PRNT IC50: 0.0092 µg/mL
[3]
  PRNT IC50: 0.015 µg/mL

B3: M1C7 (antibody, V domains shown)
VH: QVQLVESGGGLVQPGRSLRLSCAASGFTFSSYAMHWVRQAPGKGLEWVAIITYDGSGKYYADSLEGRITISRDDPKSMLYLHMRSLTAEDTAVYYCVKSGSFSSAFWLEDWGQGTLVTVSS
VL: EIVLTQSPATLSLSPGERATLSCRASQSISNFVAWYQQKPGQAPRLLIYDASNGATGTPARFSGSGSGTDFTLTISSLEPEDFAVYYCQQRSTWTFGQGTKVEIKR
[1]
  PRNT IC50: 0.0085 µg/mL
[2]
  PRNT IC50: 1.1 µg/mL
[3]
  PRNT IC50: 0.0083 µg/mL

B4: M1A04 (antibody, V domains shown)
VH: EVQLVESGGGLVRPGGSLRLSCAASGFNVRNYYMSWVRQAPGKGLEWISVIYGGGTTFYAGSVKGRFTISRDDSKSTLFLQMNSLRADDTAVYYCARDPGTVMSTENLQGMDVWGQGTTVTVSS
VL: DIQMTQSPSSLSASVGDRVTITCRASQTIRSYLNWYQQKPGKAPNLLIYAATSLQSGVPSRFSGSGSGTDFTLTISSLQPEDSATYYCQQSFSTLYSFGQGTRLEIK
notes: IgG
[1]
  PRNT IC50: 0.128 µg/mL
[3]
  PRNT IC50: 0.0872 µg/mL
[4]
  EC50 (read off the curve): ~0.005 µg/mL
D414K
  binding result: binds

B5: M4B11 (antibody, V domains shown)
VH: QVQLVQSGTEVQTPGASVKVSCKTSGYIFTGYFMHWVRQAPGQGFEWMGWVNPYSGATTYAQKFQGRVTMTRDTSISTVYMELSRLTSDDTAIYYCAKDTSNSGPDLLEHWGQGTLVIVSS
VL: EIVLTQSPATLSLSPGERATLSCRASQSISNFLVWYQRKPGQAPRLLIFDVSKRATGIPTRFSGSGSGTDFTLTISSLEPEDFAVYYCQQRSNWPPGYTFGQGTKLEIK
[1]
  PRNT IC50: 0.238 µg/mL
[3]
  PRNT IC50: 0.652 µg/mL

B6: M1D2 (antibody, V domains shown)
VH: QVQLQESGPGLVKPSGTLSLTCTVSGGSVNSDHWWTWVRQSPETGLEWIGELNHIGTFNYNPSFKSRATISIDTSKNQFSLTLTSVAAADTAVYYCARRPPPLPEYFYYYFMDVWGNGTTVTVSS
VL: DIQMTQSPSSLSASVGDRVTITCRTSQSIRGHINWYQQKPGKGPKLLIYGASSLQSGVPSRFSGSGSGTDFTLTISSLQAEDFATYYCQQSYSNPYSFGRGTKLEIKR
[1]
  PRNT IC50: 0.0124 µg/mL
[3]
  PRNT IC50: 0.0117 µg/mL

B7: M8C10 (antibody, V domains shown)
VH: QVQLVESGGGVVQPGRSLRLSCAASGFTFTTYTMHWVRQAPGKGLEWVALISSDGNNKYYADSVKGRFTISRDNSKNTLYLQMSSLRAEDTAVYYCARGYYSGGDAFDVWGQGTMVTVSS
VL: DIQMTQSPSTLSASVGDRVTITCRASQTITIWLAWYQQKPGKAPKLLIYDAVSLESGVPSRFRGSGSGTDFTLTISSLQPDDFATYYCQQYNNYPYTFGQGTKLEIKR
[5]
  virus neutralization IC50, MPV strain B2: 660 nM
[6]
  virus neutralization IC50, MPV strain A1: 371 nM
[1]
  PRNT IC50: 0.66 µg/mL
[3]
  PRNT IC50: 0.37 µg/mL

B8: M4A10 (antibody, V domains shown)
VH: QVQLVQSGAEVKKPGASVKVSCKASGYTFNGHYLHWVRQAPGQGLEWMGWINPNSGGTDYAQRFQGRVTMTRGTSISTAYMELSRLTSDDTAVYFCARDNFGFWSASSGRHNWLDSWGQGTLVIVSS
VL: NFMLTQPHSVSESPGKTVTISCTRSTGNIASNYVQWYQQRPGSSPTTVIYEDNQRPSAVPDRFSGSIDSSSNSASLTVSGLRTEDEADYYCQSYDSGHHVVFGGGTKLTVL
notes: IgG
N135T G139N Y233N
  binding result: binds
[7]
  EC50 (read off the curve): ~0.006 µg/mL
T143K
  EC50 (read off the curve): ~0.002 µg/mL
[1]
  PRNT IC50: 0.0301 µg/mL
[3]
  PRNT IC50: > 10 µg/mL

B9: M4B06 (antibody, V domains shown)
VH: EVQLLESGGGFVQPGGSLRLSCVVTGFTFSNYAMCWVRQAPGKGPEWVSGIGGSVGTTYYADSVKGRFTISRDNSKNTLYLQMSGLRAEDTARYYCAKVPSFFVFEDGFDMWGQGTVVTVSS
VL: QSVLTQPPSASGNPGQRVTISCYGSGSNIGNNYVHWFRQLPGTAPRLLIYNTDILVPGVPDRFSGSESGTSASLAISGLQSGDEADYFCAAWDDTLNGYVFGPGTTVTVL
[8]
  IC50, hMPV plaque reduction neutralization: 0.7 µg/mL
[9]
  IC50, hMPV plaque reduction neutralization: 0.0103 µg/mL
[10]
  IC50, hMPV plaque reduction neutralization: 0.524 µg/mL
[11]
  IC50, hMPV plaque reduction neutralization: 0.49 µg/mL
[12]
  fold reduction of neutralization potency against the MARM virus: 70 fold
[13]
  fold reduction of neutralization potency against the MARM virus: 52 fold
[14]
  fold reduction of neutralization potency against the MARM virus: 49 fold
[1]
  PRNT IC50: 0.0022 µg/mL
[3]
  PRNT IC50: 0.0035 µg/mL

B10: M4B06 Fab (Fab, V domains shown)
VH: EVQLLESGGGFVQPGGSLRLSCVVTGFTFSNYAMCWVRQAPGKGPEWVSGIGGSVGTTYYADSVKGRFTISRDNSKNTLYLQMSGLRAEDTARYYCAKVPSFFVFEDGFDMWGQGTVVTVSS
VL: QSVLTQPPSASGNPGQRVTISCYGSGSNIGNNYVHWFRQLPGTAPRLLIYNTDILVPGVPDRFSGSESGTSASLAISGLQSGDEADYFCAAWDDTLNGYVFGPGTTVTVL
[9]
  IC50, hMPV plaque reduction neutralization: 0.076 µg/mL

B11: M1A08 (antibody, V domains shown)
VH: QVQLVQSGAEVKKPGASVKVSCKASGVTLTDYYFHWIRQAPGQALEWMGRINPARGGTHYAEKFEDRVTMTTDTSTNTVYMDLSSLRSDDTAVYYCARSGSTHNIYSGFYAFDHWGQGTLVTVSS
VL: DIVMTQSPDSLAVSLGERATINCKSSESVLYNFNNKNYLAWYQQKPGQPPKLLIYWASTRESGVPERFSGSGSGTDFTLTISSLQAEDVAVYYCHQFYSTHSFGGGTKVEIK
[1]
  PRNT IC50: 0.72 µg/mL
[3]
  PRNT IC50: 2.27 µg/mL

B12: M3C06 (antibody, V domains shown)
VH: QVQLVQSGAEVKKPGSSVKVSCKAYGGTLSNYAISWVRQAPGQGLHWMGRIIPVMNVANYADNFQGRVTITADKSTSTAYMELSSLRSEDAAIYYCATARGLGSLEGGDAFDVWGQGTMLTVSS
VL: DIVMTQSPDSVAVSLGERATISCKSSLSLLYSSNNKNYLVWYQQKPGQPPKLLFYWASTRESGVPDRFSASGSGTDFTLTISSLQAEDVAVYYCQQYYSTPITFGQGTRLEIR
notes: IgG
N135T G139N Y233N
  binding result: binds
[7]
  EC50 (read off the curve): ~0.009 µg/mL
T143K
  binding result: no binding (tested: about 3000 ng/mL)
[1]
  PRNT IC50: 0.0617 µg/mL
[3]
  PRNT IC50: > 10 µg/mL

B13: M3D04 (antibody, V domains shown)
VH: EVQLVESGGDLVEPGGSLRLSCAASGFTFESAWMSWVRQAPGKGLEWVGRIKSKLDHGTTDYAAPVKGRFTLSRDDSKNTLFLQMNNLKTEDTGVYYCATDRSDVRFLEWLGNYQFGMDVWGQGTTVAVSS
VL: EIVLTQSPGTLSLSPGERATLSCRASHSVSSSYLAWYQQKPGQAPRLLIFGASSRATGIPDRFSGSGSGTDFTLTISRLEPEDFAVYYCQQYLTSPPGWTFGQGTKVEIK
[1]
  PRNT IC50: 0.327 µg/mL
[3]
  PRNT IC50: 0.2 µg/mL
